Results published in the supplement of paper PMC12042874.
± gives the uncertainty stated by the source.

Test: amyloid nucleation score (Sup35N fusion, yeast selection) (log enrichment); library NNK1; higher = more nucleation; inactive = no reads after selection
In short: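 Psi-negative yeast expressed Sup35N fused to peptides of 20 random codons. They were induced 24 hours with 100 μM copper sulfate, grown 7 days at 30°C without adenine and uracil, and their plasmid inserts from input and output were Illumina-sequenced. The nucleation score is the DiMSum log enrichment of output over input reads, centred on the mode score of non-aggregating sequences. Sequences with under 100 input reads were excluded.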

Substance	amyloid nucleation score
KSKIQDLCCPSRPVVGMVCL	0.239 ± 0.43
KSQKG	0.008 ± 0.36
KSRAGMNKACTQLYPLV	-0.215 ± 0.34
KSRWHMLLNS	0.051 ± 0.72
KSVDFTYDEGRSTAVIVYHF	0.223 ± 0.29
KSVFIYLGMISLVG	0.352 ± 0.88
KSVVSFMTFPSLQEHKVVLI	0.33 ± 0.53
KTCYTVFSRPYENWS	0.625 ± 0.48
KTTCIDTIR	0.565 ± 0.43
KVCTHYSTHRWLSSQPSKVV	-0.696 ± 1.9
KVEWVSDTRVNLLGTFVLKA	1.18 ± 0.43
KVFLRMQRSSGTVKCKSQTE	-0.065 ± 0.41
KVFWLYPMNLS	0.278 ± 0.65
KVIFQVYYI	7.46 ± 0.047
KVIRAGHDVVPRTYRRRSRR	1.29 ± 0.58
KVKRFDGCSSRSKHVVTEI	4.13 ± 0.076
KVLGQGYERMDLFIVVFR	-0.357 ± 0.59
KVLGWNMGVHFNHGGRSFVM	0.461 ± 0.54
KVLILCAT	1.1 ± 0.62
KVPKRKITNFRGMSGFSRYR	0.985 ± 0.98
KVQYLFCNYLIKSYMMVQCN	0.477 ± 0.39
KVSVRYSNYSCVYFVYCRW	0.279 ± 0.27
KVVKCS	-0.97 ± 0.3
KVVSGA	0.879 ± 0.53
KVWSLKLSFGSLNMPMGYV	0.399 ± 0.26

Substance	amyloid nucleation score
KVYTWVPPTMNYRMNLFIVR	0.036 ± 0.19
KWVHEIRSSMVCVYLAGNSR	0.677 ± 0.79
KYASVGASFVWC	0.102 ± 0.34
KYHRFFAG	-1.02 ± 1.8
KYPYLYLPIRMLNRQHARVG	0.449 ± 0.62
KYSEDLIRQEDVVRYMGTMS	-0.056 ± 0.24
LADGLTVRSKYYISVNSVGS	-0.16 ± 0.4
LAELWECDKSLKSPGAYWVL	1.49 ± 0.73
LAEVQRKTR	-0.291 ± 0.59
LAFGFTSWS	0.49 ± 0.38
LAIDNDSWFVETNYNFKFDV	-0.438 ± 0.57
LAITDKPNANARRPPTPVLY	0.623 ± 0.51
LAKATGHVVCMSRVRRPVGQ	inactive
LAREAGR	inactive
LASLDLCVISLMNNHVDRTD	0.94 ± 0.29
LASTVSDWN	0.32 ± 0.39
LAVERGHCIQVRGLKCLIES	1.66 ± 0.47
LCALSEVLVLCDSY	0.29 ± 0.96
LCAMIPAVGRYWSCVVGHSV	-0.013 ± 1.6
LCDYKRPCMTMYNHHELLII	0.005 ± 0.47
LCEMLF	-0.202 ± 0.61
LCGSGGLMCRQGHYAEMGGC	-0.287 ± 1.1
LCIMF	-0.446 ± 0.69
LCINLVYRKISPALRF	-0.859 ± 0.75
LCKRNVKCQFL	0.192 ± 0.59

Substance	amyloid nucleation score
LCLISDMPKHFGCGYTKCSL	-1.17 ± 0.63
LCLRVEGGNKPTEHCITSPT	-0.234 ± 0.43
LCLYGVC	-0.164 ± 0.56
LCQVTG	0.391 ± 0.48
LCSMTKTNVVRSECRVLTRR	1.86 ± 0.65
LCTDCLSGTVSDCRMFSHNR	-0.592 ± 0.75
LCVNERVHQSLSRQRIPNCL	1.26 ± 0.61
LCWRYMVLRMNFFAADLYYN	1.39 ± 0.32
LDAGH	-1.56 ± 1.8
LDARKKARMWRNTIDMDELV	inactive
LDCDSSLGRN	0.722 ± 0.39
LDCELLQRNFSNTKGHPIYR	0.052 ± 0.35
LDGVFNTTIATVNSFREYLM	0.132 ± 0.48
LDHNGEGFFFKGSLFVNCLA	-0.912 ± 1.6
LDILDLVRTNVIRTKKPFEI	-0.348 ± 0.83
LDKYLHLRLWHTVFWYSTIK	inactive
LDNIMVCNYAE	inactive
LDQIQIFSEIGVFRLVCQHI	-0.164 ± 0.64
LDRVWMYTIRLLQMKAMVLP	0.497 ± 0.64
LDSGQAPSMLLWGSNYWEKL	0.808 ± 0.9
LDSTLSLQ	0.071 ± 0.3
LDTIVIVWRNCLRYKFHLCL	-0.057 ± 0.84
LEALGYLWDKWAYYAMVMRS	0.836 ± 0.97
LERKMYRNISSLTVVGYTMS	-0.095 ± 0.51
LFFQPLVLFKKRLEYCFRLL	0.2 ± 0.6

Substance	amyloid nucleation score
LFGKRCGHGQCQDHWKAVCV	-0.008 ± 0.61
LFHRIV	-0.353 ± 0.54
LFILPCQVNLHECMVLCLFE	5.91 ± 0.06
LFLCRILYCLWVNVFLLGHE	0.367 ± 0.32
LFRDACLGMR	-0.494 ± 0.48
LFSRFCTTVCKSTFRFDTR	1.65 ± 0.76
LFSRVFSAANVIRHNFLFME	0.746 ± 0.9
LFVMSWYNYAVKFVAINTIT	-0.031 ± 0.24
LFVNM	inactive
LFWASVSSWYDGEGVGKPDV	0.134 ± 0.47
LGAQGLFVYSLLCQT	-0.126 ± 0.68
LGESREVSGHDNRCWAFQ	0.594 ± 0.49
LGESTGIFFYGEIRPYLNGS	-0.148 ± 0.64
LGKNFLYISCSLTDQGAGLH	2.7 ± 0.16
LGMKSVKWL	0.345 ± 0.53
LGMWRCKPRTTLAWSYLDPV	0.179 ± 0.71
LGQLFHGGCD	0.3 ± 0.43
LGRGTKMLLKVYTVRTSNYR	0.592 ± 0.58
LGRSWWYYSQLWDSRHLSF	-0.38 ± 1.5
LGVIYLRLWFQSGGRQVLEG	0.089 ± 0.42
LHLECLWCLARTSYF	8.244 ± 0.045
LHRNSTPFIWHRRIEVSLGN	-0.201 ± 1.3
LIARMWANFRRGVSITARF	0.87 ± 0.87
LICSSYTNLALILHLWSKRF	0.209 ± 0.26
LIDLCGLCFEAR	0.181 ± 0.26

Substance	amyloid nucleation score
LIGHRSRS	-1.57 ± 1.1
LILHSNSGFNGYWVSQWNTM	-0.304 ± 0.44
LIQLVDRVGGGVFTRDCDAI	-0.368 ± 0.47
LISFSCVVNSLAEPRYIFLS	1.13 ± 0.88
LITNP	2.86 ± 0.12
LIVLWNCSADPDGFMWCSKC	inactive
LIYFKGSS	0.399 ± 0.79
LKAELSNLKAHVLW	0.777 ± 0.54
LKAGFM	-0.102 ± 0.28
LKAIFVFFVEFRDPLIMRES	0.269 ± 0.79
LKDCSCVERQD	-0.072 ± 0.38
LKKTYYSMYL	-0.045 ± 0.33
LKQTPMLGDMGWGHRCLGKT	-0.262 ± 0.73
LKRDSFWVLIKWTRLDMGVS	0.056 ± 0.37
LKRVGSNLNT	-0.229 ± 1.4
LKTSRMFLG	-0.68 ± 0.39
LKVTCFRTYANFGRYDILVF	0.096 ± 0.53
LKWSSGHGKIGSNVWRRVYC	0.42 ± 1.2
LKWWWIQNAGCTVVIMVL	-0.701 ± 0.54
LLAIHAYREVLTGPGCGYLT	1.15 ± 0.66
LLAPAS	0.032 ± 0.35
LLASRPEG	-0.437 ± 0.35
LLAVCYVIF	1.98 ± 0.24
LLCSKCGFTDQFQS	-1.09 ± 1.2
LLCTYISTEAPIVTFLRLTY	-0.667 ± 0.44

Substance	amyloid nucleation score
LLDRLRRTGLRRCYVSGEFP	5.89 ± 0.084
LLGDMMALQAYSELLRFMSG	-0.234 ± 0.61
LLGVSAF	-0.718 ± 0.68
LLHVYYFFISWPMFCMVYM	-0.203 ± 0.72
LLIGWASEDHRYKGISNGGG	0.598 ± 0.34
LLKSKGGLPILRPCWLPFWQ	0.066 ± 0.75
LLLAY	-0.716 ± 0.44
LLLDLILY	-0.505 ± 0.72
LLLIRSYKCNGRRIRICSLL	-0.862 ± 0.76
LLLYPRMGDRGTYYGMSGIR	-1.01 ± 2.7
LLRLLVRAVMFFWAWGSRGA	inactive
LLSIVPPDIFCQFSGHGRLT	0.26 ± 0.62
LLTSMSSGLVDYR	inactive
LLVCSMHFISMTPVMPNSTA	2.12 ± 0.24
LLVVSYFITSLSTCMFGYWK	-0.411 ± 0.63
LLWAPILCLTGDNTVGFLSP	3.3 ± 0.066
LLWGATFCSSIQPDYNLSPV	-0.095 ± 0.44
LMFGLAMVNENPRGLSELRR	0.065 ± 0.27
LMFSDGWFLNGEISPWVGF	-0.393 ± 0.71
LMKGTYFIMCNLLAYECLTR	2.78 ± 0.14
LMSLRDQRVLALN	-0.533 ± 0.44
LMSWEL	0.462 ± 1.2
LMTLINPQFFSCSFLDDVSN	-0.362 ± 0.6
LMWSMPNGTSYGNGPVEWTG	-0.515 ± 0.81
LNDRYYVIM	0.233 ± 0.93

Substance	amyloid nucleation score
LNFIHNGM	-0.444 ± 1.9
LNGPTVTKECRGAYMVMPGT	-0.431 ± 1.1
LNHSYMICLFLCNR	6.95 ± 0.073
LNINSFFVFGT	4.97 ± 0.057
LNIRVIRGLGRMNAPVVSDL	1.32 ± 0.57
LNLAKPLFSHRLRRFKCSYF	2.08 ± 0.23
LNPCHWGAFLY	0.648 ± 0.67
LNRSNWANFCMAEFMDPRS	0.488 ± 0.58
LNSYVRG	0.201 ± 0.3
LNWMCTNWAMFFYTQVILQY	-0.488 ± 1.1
LNYTVQSDTWHLNWQP	0.875 ± 0.93
LPFEVRLDCDVVGGG	0.725 ± 0.48
LPFMTHVHVLSRQKTKVKGR	-0.041 ± 0.28
LPFNVL	3.09 ± 0.2
LPLHAESTGCYGLFSEHFSI	-1.27 ± 1.2
LPRRKLNFIGLKISISIIAV	inactive
LPSGLRCRTSRMDVAKLAK	0.441 ± 0.47
LPSSGA	-0.019 ± 0.64
LPWLPLKSRYALTAKFTCEP	0.261 ± 1.2
LPWYSSQMRADVSTPERWFL	-0.224 ± 0.7
LQGCGYYKFGITEEWH	0.415 ± 0.78
LQNETLSMSMRLLMAYFIKL	0.13 ± 1.2
LQWNRERGLTLLSWLRYKSI	-0.505 ± 1.5
LRAFR	1.81 ± 0.33
LRDNMLSEGMQLYCMARASA	-0.201 ± 0.72
